Test results as given in patent publication US20160348147A1, “SYSTEMS AND DEVICES FOR PROTEASE DETECTION BASED ON ENGINEERED POLYMERS AND BIOPOLYMERS AND METHODS OF USE” (DUKE UNIVERSITY, priority 2014, published 2016).
Several values for one entry are separate records, joined by “and”; a condition that tells them apart may be missing. Equal values may be shown once.

Assays:
[1] = Thermal behavior by optical turbidimetry and dynamic light scattering; format: physicochemical; conditions: 100 μM in buffer
Procedure: (§1) We confirmed the purity and molecular weight of the purified peptides by electrophoresis (10-20% gradient […] SDS-PAGE, Thermo Scientific, CA) and by matrix-assisted laser desorption/ionization mass spectrometry. Mass spectrometry samples were prepared by mixing the enzymatic reaction product with sinapinic acid in 1:10 ratio. 1 μL of the sample/matrix mixture was then loaded on the grid and the measurements were performed on a Voyager-DE-Pro instrument (Applied Biosystems, Germany). To determine the concentration of the ELP-substrate fusion solutions we used a calculated extinction coefficient (Gill, S. C. & Vonhippel, P. H. Analytical Biochemistry 1989, 182, 319-326) or lyophilized the polypeptide solution. We studied the thermal behavior of the ELP-substrate fusion constructs in both proteolysis buffer (see below) and diluted human serum in the presence and absence of MMP-1 using optical turbidimetry on a temperature-programmed UV-vis spectrometer (Cary 300, Agilent Technologies). To characterize the size of the micelles and aggregates, we used single angle dynamic light scattering (DLS; DynaPro, Protein Solution).
FIG. 2 presents optical densities at 350 nm (OD350) and hydrodynamic diameters of ELP-substrate fusion as a function of temperature prior to, and after, enzymatic reaction. […] These changes are consistent with the self-assembly of ELP-substrate fusions (unimers) into micelles as the temperature is raised above the CMT (Ghoorchian, A. et al., The Journal of Physical Chemistry. B 2013, 117, 8865-8874). We note that there is a slight local maximum in both the optical density and hydrodynamic diameter at temperatures slightly above the CMT, which has been observed previously (Hassouneh, W., Duke University, PhD thesis, 2013); the origin of this small peak is, as yet, unclear.

MMP-1 = molecular target: T1, MMP-1 (Homo sapiens, UniProt P03956); test: Mass spectrometry of ELP-substrate fusion before and after incubation with MMP-1; format: biochemical; conditions: 100 μM polypeptide, 100 ng/mL MMP-1, 2 h at 25° C., proteolysis buffer
T1 construct: Human MMP-1 catalytic domain (recombinant, produced in E. coli, 19.9 kDa, >95% purity); purchased Enzo Life Sciences (Farmingdale, N.Y.); host or cells: E. coli
T1 sequence (P03956 100-269 limits assumed): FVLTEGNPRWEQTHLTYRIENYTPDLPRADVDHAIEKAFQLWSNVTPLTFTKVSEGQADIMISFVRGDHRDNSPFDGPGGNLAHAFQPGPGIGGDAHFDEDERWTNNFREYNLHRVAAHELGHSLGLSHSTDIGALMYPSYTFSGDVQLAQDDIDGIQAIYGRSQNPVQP
Procedure: as §1
We used mass spectrometry to examine the cleavage of the MMP-1 substrate peptide in the ELP-substrate fusion by measuring the molecular weight of the polypeptides prior to, and after incubation with MMP-1. […]

[2] = tested on: endogenous MMP-1 in human serum; test: Time-dependent aggregation (OD350) of ELP-substrate fusion in diluted human serum (40%); format: biochemical; conditions: diluted serum with no added MMP-1, 37° C.
Procedure: We performed the proteolysis reactions either in 100% protease buffer or in a mixture of human serum and buffer (40% (v/v) serum, 50% (v/v) buffer, 10% (v/v) ELP-substrate solution in water). The proteolysis buffer (100 mM HEPES, CaCl2 20 mM, MgCl2 1.0 mM, ZnCl2 100 μM, NaCl 0.5 M for diluted serum and 0.1 M for buffer solutions) was made experimentally in our lab based on previously published assays (Patterson, J. & Hubbell, J. A. Biomaterials 2010, 31, 7836-7845; Turk, B. E. et al., Nature Biotechnology 2001, 19, 661-667; Lowe, S. B. et al., Acs Nano 2012, 6, 851-857). We investigated proteolysis in two ways. In the first approach, we incubated solutions of the ELP-substrate fusion with MMP-1 (100 ng/mL) for 12 h at 40° C. temperature and measured the optical density at 350 nm (OD350) before and after the incubation. In the second approach, we incubated the ELP-substrate fusion with varying concentrations of MMP-1 (0.02 ng/mL to 200 ng/mL) in buffer or in diluted human serum, at 40° C. or 37° C. respectively, a temperature that is above the CMT of the ELP, and monitored the changes OD350 as a function of time (kinetic study). For the kinetic studies, we added the enzyme to the solution after the optical density of the solution reached a steady-state value and repeated the experiments at least three times. […]

[3] = DLS, prior to enzymatic reaction

M(GVGVP)60GDGQVPMSMRGGDDEGQQDDEEGY (MGVGVPGDGQVPMSMRGGDDEGQQDDEEGY) [ELP-substrate fusion, recombinant polypeptide: ELP fused to MMP-1 substrate and charged hydrophilic peptide]
critical micellization temperature (CMT) ([1]; prior to enzymatic reaction): ≈ 38 °C and 38 °C | hydrodynamic diameter above Tt [1, 3]: ≈ 50 nm | hydrodynamic diameter below the CMT [1, 3]: < 10 nm | increase of OD350 as the solution is heated through the CMT ([1]; before enzymatic reaction): about 0.2 OD units | cleavage of the MMP-1 substrate peptide (mass spectrometry) (MMP-1): most of the 1.8 kDa MMP-sensitive peptide is cleaved off | aggregation time [2]: ~350 min
